Our source for the interaction score values is paper PMC10397247.

In one assay the target is T1, 4H570-bH.
T1 chain: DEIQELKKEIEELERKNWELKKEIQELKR
The assay can be described thus: two-hybrid library CCNG1.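 Also: natural log of median RNA to DNA barcode read ratio; higher means stronger binding.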

For a further assay, the target named is T2, 4H584-bH.
T2 chain: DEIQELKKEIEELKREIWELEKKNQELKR
Description: two-hybrid library CCNG1.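 Also: natural log of median RNA to DNA barcode read ratio; higher means stronger binding.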

For the next assay, the target named is T3, 4H619-bH.
T3 chain: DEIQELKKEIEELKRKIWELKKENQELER
The assay can be described thus: two-hybrid library CCNG1.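 Also: natural log of median RNA to DNA barcode read ratio; higher means stronger binding.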

The target in another assay is T4, 4H850-bH.
T4 chain: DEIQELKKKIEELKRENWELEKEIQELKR
Description: two-hybrid library CCNG1.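 Also: natural log of median RNA to DNA barcode read ratio; higher means stronger binding.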

The target of the next assay is T5, 4H906-bH.
T5 chain: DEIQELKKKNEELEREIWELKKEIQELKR
The assay can be described thus: two-hybrid library CCNG1.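 Also: natural log of median RNA to DNA barcode read ratio; higher means stronger binding.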

The next assay deals with T6, 4H349-bN.
T6 chain: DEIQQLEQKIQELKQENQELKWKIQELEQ
Description: two-hybrid library CCNG1.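 Also: natural log of median RNA to DNA barcode read ratio; higher means stronger binding.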

A further assay concerns the target T7, 4H56-bN.
T7 chain: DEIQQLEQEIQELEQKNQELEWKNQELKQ
Description: two-hybrid library CCNG1.

The target of another assay is T8, 4H730-bN.
T8 chain: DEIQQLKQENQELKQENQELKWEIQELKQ
Description: two-hybrid library CCNG1.

For another assay, the target named is T9, 4H796-bN.
T9 chain: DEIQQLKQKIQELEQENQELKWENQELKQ
The assay can be described thus: two-hybrid library CCNG1.

In another assay the target is T10, 4H932-bN.
T10 chain: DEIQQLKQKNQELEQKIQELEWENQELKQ
The assay can be described thus: two-hybrid library CCNG1.

In another assay the target is T11, 4H949-bN.
T11 chain: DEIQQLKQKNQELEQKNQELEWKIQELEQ
Description: two-hybrid library CCNG1.

Another assay has as its target T12, APC4100-AA.
T12 chain: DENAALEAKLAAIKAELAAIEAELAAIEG
The assay can be described thus: two-hybrid library CCmax.

In another assay the target is T13, APC4336-AA.
T13 chain: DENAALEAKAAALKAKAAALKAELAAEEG
The assay can be described thus: two-hybrid library CCmax. The note with it: mean of both orientations.

A further assay addresses T14, APC5009-AA.
T14 chain: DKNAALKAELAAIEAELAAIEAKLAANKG
Description: two-hybrid library CCmax. Conditions: mean of both orientations.

In a further assay the target is T15, APC542-AA.
T15 chain: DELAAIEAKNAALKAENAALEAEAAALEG
The assay can be described thus: two-hybrid library CCmax. The note with it: mean of both orientations.

For another assay, the target named is T16, APC5531-AA.
T16 chain: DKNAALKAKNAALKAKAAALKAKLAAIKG
The assay can be described thus: two-hybrid library CCmax. The note with it: mean of both orientations.

The target of the next assay is T17, APC6088-AA.
T17 chain: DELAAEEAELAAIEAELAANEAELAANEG
Description: two-hybrid library CCmax. The note with it: mean of both orientations.

In the next assay the target is T18, APC7524-AA.
T18 chain: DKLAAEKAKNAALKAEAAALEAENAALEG
Description: two-hybrid library CCmax. Conditions: mean of both orientations.

In a further assay the target is T19, APC8401-AA.
T19 chain: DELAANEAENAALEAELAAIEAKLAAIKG
Description: two-hybrid library CCmax. Conditions: mean of both orientations.

Another assay addresses T20, APC8516-AA.
T20 chain: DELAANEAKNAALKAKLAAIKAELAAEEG
The assay can be described thus: two-hybrid library CCmax. Conditions: mean of both orientations.

A further assay has as its target T21, APC9141-AA.
T21 chain: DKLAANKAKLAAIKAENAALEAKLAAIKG
Description: two-hybrid library CCmax. The note with it: mean of both orientations.

The next assay has as its target T22, APC9182-AA.
T22 chain: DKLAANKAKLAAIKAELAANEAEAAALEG
The assay can be described thus: two-hybrid library CCmax. The note with it: mean of both orientations.

Another assay deals with T23, APC9291-AA.
T23 chain: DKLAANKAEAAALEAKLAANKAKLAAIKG
The assay can be described thus: two-hybrid library CCmax. Conditions: mean of both orientations.

In another assay the target is T24, APC9806-AA.
T24 chain: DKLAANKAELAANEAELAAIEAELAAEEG
The assay can be described thus: two-hybrid library CCmax. The note with it: mean of both orientations.

Another assay addresses T25, 4H967-AA.
T25 chain: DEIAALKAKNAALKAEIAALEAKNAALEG
Description: two-hybrid library CCmax.

In a further assay the target is T26, 4H3974-bH.
T26 chain: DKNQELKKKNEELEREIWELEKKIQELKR
The assay can be described thus: two-hybrid library CCNG1.

The target in a further assay is T27, P8.
T27 chain: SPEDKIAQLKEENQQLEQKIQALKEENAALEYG
Description: two-hybrid library CC1.

The target in another assay is T28, P8mS.
T28 chain: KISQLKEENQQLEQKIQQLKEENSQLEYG
The assay can be described thus: two-hybrid library CC1. Conditions: mean of both orientations.

The target in another assay is T29, P9.
T29 chain: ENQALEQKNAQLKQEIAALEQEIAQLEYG
The assay can be described thus: two-hybrid library CC1. Conditions: mean of both orientations.

A further assay addresses T30, 4H2907-AA.
T30 chain: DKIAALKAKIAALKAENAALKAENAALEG
The assay can be described thus: two-hybrid library CCmax.

In a further assay the target is T31, 4H3056-AA.
T31 chain: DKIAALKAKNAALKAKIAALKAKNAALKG
The assay can be described thus: two-hybrid library CCmax. The note with it: mean of both orientations.

A further assay concerns the target T32, 4H3133-AA.
T32 chain: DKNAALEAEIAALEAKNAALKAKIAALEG
Description: two-hybrid library CCmax. The note with it: mean of both orientations.

A further assay concerns the target T33, 4H3162-AA.
T33 chain: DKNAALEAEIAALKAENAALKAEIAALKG
The assay can be described thus: two-hybrid library CCmax. The note with it: mean of both orientations.

For another assay, the target named is T34, 4H32-AA.
T34 chain: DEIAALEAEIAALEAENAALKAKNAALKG
Description: two-hybrid library CCmax. The note with it: mean of both orientations.

The target of another assay is T35, 4H3378-AA.
T35 chain: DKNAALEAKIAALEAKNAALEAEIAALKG
Description: two-hybrid library CCmax. The note with it: mean of both orientations.

A further assay has as its target T36, 4H340-AA.
T36 chain: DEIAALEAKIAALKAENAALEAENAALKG
The assay can be described thus: two-hybrid library CCmax. Conditions: mean of both orientations.

For the next assay, the target named is T37, 4H3413-AA.
T37 chain: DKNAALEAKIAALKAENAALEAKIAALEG
Description: two-hybrid library CCmax. Conditions: mean of both orientations.

The target in a further assay is T38, 4H3588-AA.
T38 chain: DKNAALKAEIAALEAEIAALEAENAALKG
Description: two-hybrid library CCmax. Conditions: mean of both orientations.

The next assay has as its target T39, 4H3606-AA.
T39 chain: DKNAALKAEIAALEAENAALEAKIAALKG
Description: two-hybrid library CCmax. The note with it: mean of both orientations.

The target of a further assay is T40, 4H3631-AA.
T40 chain: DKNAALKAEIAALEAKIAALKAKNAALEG
The assay can be described thus: two-hybrid library CCmax. The note with it: mean of both orientations.

In a further assay the target is T41, 4H3697-AA.
T41 chain: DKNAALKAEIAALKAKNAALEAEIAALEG
Description: two-hybrid library CCmax. The note with it: mean of both orientations.

The next assay concerns the target T42, 4H3718-AA.
T42 chain: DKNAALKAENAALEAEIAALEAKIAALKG
Description: two-hybrid library CCmax. Conditions: mean of both orientations.

In the next assay the target is T43, 4H384-AA.
T43 chain: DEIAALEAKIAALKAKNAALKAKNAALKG
Description: two-hybrid library CCmax. The note with it: mean of both orientations.

For a further assay, the target named is T44, 4H3865-AA.
T44 chain: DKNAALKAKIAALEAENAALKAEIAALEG
The assay can be described thus: two-hybrid library CCmax. The note with it: mean of both orientations.

For the next assay, the target named is T45, 4H697-AA.
T45 chain: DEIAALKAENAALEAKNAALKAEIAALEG
Description: two-hybrid library CCmax. The note with it: mean of both orientations.

Another assay addresses T46, 4H982-AA.
T46 chain: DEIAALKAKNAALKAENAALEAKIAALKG
The assay can be described thus: two-hybrid library CCmax. The note with it: mean of both orientations.

A further assay has as its target T47, 4H575-bH.
T47 chain: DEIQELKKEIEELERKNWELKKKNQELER
The assay can be described thus: two-hybrid library CCNG1.

A further assay concerns the target T48, 4H683-bH.
T48 chain: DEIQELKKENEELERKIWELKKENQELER
The assay can be described thus: two-hybrid library CCNG1.

The target of the next assay is T49, 4H754-bH.
T49 chain: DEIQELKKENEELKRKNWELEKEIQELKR
Description: two-hybrid library CCNG1.

Another assay addresses T50, 4H780-bH.
T50 chain: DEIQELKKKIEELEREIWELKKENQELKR
Description: two-hybrid library CCNG1.

A further assay has as its target T51, 4H797-bH.
T51 chain: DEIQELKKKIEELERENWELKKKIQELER
Description: two-hybrid library CCNG1.

Another assay deals with T52, 4H855-bH.
T52 chain: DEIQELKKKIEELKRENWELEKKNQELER
Description: two-hybrid library CCNG1.

Another assay concerns the target T53, 4H918-bH.
T53 chain: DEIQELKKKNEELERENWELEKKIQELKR
Description: two-hybrid library CCNG1.

The target in the next assay is T54, 4H953-bH.
T54 chain: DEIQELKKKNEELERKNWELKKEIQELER
Description: two-hybrid library CCNG1.

The target in the next assay is T55, 4H968-bH.
T55 chain: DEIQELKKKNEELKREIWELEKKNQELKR
The assay can be described thus: two-hybrid library CCNG1.

For the molecule DEIQELKKEIEELERKNWELKKEIQELKR [4H570-bH], the interaction score with 4H570-bH was 1.19; in the assay with 4H584-bH, -1.16; with 4H619-bH it was -0.75; with 4H850-bH, 1.01; with 4H906-bH, 0.224.
For DEIQQLEQKIQELKQENQELKWKIQELEQ [4H349-bN], the interaction score with 4H349-bN was -1.89; in the assay with 4H56-bN, -0.3; with 4H730-bN, -1.05; with 4H796-bN it was -0.249; with 4H932-bN, -0.258; with 4H949-bN, -0.958.
DENAALEAKLAAIKAELAAIEAELAAIEG [APC4100-AA]: the interaction score with APC4100-AA was 0.507; with APC4336-AA, -0.916; with APC5009-AA, 0.706; with APC542-AA it was -1.56; in the assay with APC5531-AA it was -0.557; in the assay with APC6088-AA, -1.46. The interaction score was -1.84 in the assay with APC7524-AA; -1.35 with APC8401-AA; -1.71 with APC8516-AA; -1.35 in the assay with APC9141-AA; -1.63 in the assay with APC9182-AA; -1.29 in the assay with APC9291-AA. In the assay with APC9806-AA, this molecule showed an interaction score of -1.87.
DEIAALKAKNAALKAEIAALEAKNAALEG [4H967-AA]: the interaction score with 4H967-AA is -0.481.
Turning to DKNQELKKKNEELEREIWELEKKIQELKR [4H3974-bH], the interaction score in the assay with 4H3974-bH is -0.338; with 4H570-bH it was -0.965; with 4H584-bH it was -0.203; in the assay with 4H619-bH it was -0.167; in the assay with 4H850-bH, -0.0332; with 4H906-bH, -0.332.
Regarding SPEDKIAQLKEENQQLEQKIQALKEENAALEYG [P8], the values for the interaction score with P8, with P8mS and with P9 were -2.5, -2.75 and -1.88, respectively.
For the molecule DKIAALKAKIAALKAENAALKAENAALEG [4H2907-AA], the interaction score with 4H2907-AA is -0.959; in the assay with 4H3056-AA it was -2.08; with 4H3133-AA, -1.24; with 4H3162-AA it was -1.39; with 4H32-AA, 2.38; in the assay with 4H3378-AA it was -1.66. The interaction score with 4H340-AA is 1.31; with 4H3413-AA, -2.21; with 4H3588-AA it was 1.57; with 4H3606-AA, 0.48; with 4H3631-AA, -1.81; with 4H3697-AA it was -1.97. Also, the interaction score with 4H3718-AA is -1.65; in the assay with 4H384-AA, 1.15; in the assay with 4H3865-AA, -1.75; with 4H697-AA, -1.18; with 4H982-AA it was -1.58.
As for DEIQELKKEIEELERKNWELKKKNQELER [4H575-bH], the interaction score with 4H575-bH was -0.14; with 4H683-bH, -0.243; in the assay with 4H754-bH, -0.631; in the assay with 4H780-bH it was -0.754; in the assay with 4H797-bH, -0.434; in the assay with 4H855-bH, 1.37. Also, the interaction score is -0.438 in the assay with 4H918-bH, -0.118 with 4H953-bH and -1.01 with 4H968-bH.
As to DEIQELKKEIEELKREIWELEKKNQELKR [4H584-bH], the interaction score in the assay with 4H584-bH worked out at 1.18; with 4H619-bH, 1.2; with 4H850-bH, 0.297; in the assay with 4H906-bH it was 0.202.
